The record followed here is publication doi:10.1101/157495 (bioRxiv, 2017).

This series deals with the molecule itself. In words: SEC.

B1: cyclohexadienyl dehydratase from Pseudomonas aeruginosa (PaCDT) (enzyme, UniProt Q01269 26-268, looked up)
chain: QESRLDRILESGVLRVATTGDYKPFSYRTEEGGYAGFDVDMAQRLAESLGAKLVVVPTSWPNLMRDFADDRFDIAMSGISINLERQRQAYFSIPYLRDGKTPITLCSEEARFQTLEQIDQPGVTAIVNPGGTNEKFARANLKKARILVHPDNVTIFQQIVDGKADLMMTDAIEARLQSRLHPELCAVHPQQPFDFAEKAYLLPRDEAFKRYVDQWLHIAEQSGLLRQRMEHWLEYRWPTAHGK
Regarding B1, the “stoichiometry N” value is 3.

One may read the stoichiometry N as the number of molecules, sites or subunits per partner or assembly.
